Results from patent US20220283175A1, “METALLOENZYMES FOR BIOMOLECULAR RECOGNITION OF N-TERMINAL MODIFIED PEPTIDES” (Encodia, Inc., priority 2020, published 2022).

Key:
Assay in all cases: cell-based or functional assay
[1] = biological target: wild-type human carbonic anhydrase II (hCAII) protein (human) (UniProt P00918)
M64-FAEIR = biological target: M64-FAEIR
M64-EAEIR = biological target: M64-EAEIR
M64-AAEIR = biological target: M64-AAEIR
M64-LAEIR = biological target: M64-LAEIR
M64-DAEIR = biological target: M64-DAEIR

IC50 (µM), hCAII functional assay [1] [µM] | IC50 (inhibition of pNPA hydrolysis, colorimetric assay) (M64-FAEIR) [µM] | IC50 (inhibition of pNPA hydrolysis, colorimetric assay) (M64-EAEIR) [µM] | IC50 (inhibition of pNPA hydrolysis, colorimetric assay) (M64-AAEIR) [µM] | IC50 (inhibition of pNPA hydrolysis, colorimetric assay) (M64-LAEIR) [µM] | IC50 (inhibition of pNPA hydrolysis, colorimetric assay) (M64-DAEIR) [µM] | Substance
152 | – | – | – | – | – | FAAAE (peptide)
– | 0.012 | 1.09 | 0.109 | 0.016 | 0.136 | SEQ ID NO: 58 (wild-type hCAI according to the heading of Table 11) (from UniProt P00915 5-261) (enzyme)
